Substrate in data set [1]: C/C(=C\C(=O)O)CCOP(=O)(O)O
The data set can be described thus: coupled colorimetric assay (MVA5P kinase/pyruvate kinase/pyruvate oxidase/peroxidase, resorufin), Michaelis-Menten fit. The data set is classed as biochemical, Aeropyrum pernix. The settings on record: reverse reaction (hydration of tAHMP to MVA5P), 70 mM Tris-HCl pH 7.0, 70 °C, anaerobic, reconstructed His-tagged enzyme. The text has this: coupled colorimetric assay (MVA5P kinase/pyruvate kinase/pyruvate oxidase/peroxidase, resorufin), Michaelis-Menten fit on […]

Data set [2] concerns the target T1, Aeropyrum pernix phosphomevalonate dehydratase (ApPMDh) large subunit Ape_2087.1, polyhistidine-tagged (Aeropyrum pernix, UniProt Q9YA51 1-402).
T1 construct: large subunit Ape_2087.1 of phosphomevalonate dehydratase (type IIb aconitase X), Aeropyrum pernix; also called (His)6-Ape2087.1; large subunit of ApPMDh; source: E. coli Rosetta2 (DE3), pET-HisApPMDh, co-expressed with Ape_2089; heat-treated cell extract, Histrap FF; not shown: polyhistidine ((His)6), N-terminal, kept
T1 sequence (looked up): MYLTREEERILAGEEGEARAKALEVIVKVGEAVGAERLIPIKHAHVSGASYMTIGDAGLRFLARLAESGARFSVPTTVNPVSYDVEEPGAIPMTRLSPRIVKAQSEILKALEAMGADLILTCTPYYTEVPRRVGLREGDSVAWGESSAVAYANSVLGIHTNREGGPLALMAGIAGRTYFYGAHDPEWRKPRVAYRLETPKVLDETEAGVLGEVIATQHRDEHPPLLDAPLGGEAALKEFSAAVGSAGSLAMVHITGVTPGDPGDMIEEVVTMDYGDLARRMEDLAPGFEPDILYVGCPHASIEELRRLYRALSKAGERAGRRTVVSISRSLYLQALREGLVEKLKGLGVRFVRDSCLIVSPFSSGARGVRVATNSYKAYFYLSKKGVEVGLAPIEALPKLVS
The experiment in a line: pull-down; as a1, but from a mixture of about equal amounts of cells co-expressing both subunits and cells expressing only untagged Ape_2089 (excess small subunit supplied); subunit ratio from SDS-PAGE and ImageJ. The settings on record: partners not purified.

Data set [3] has as its target T1, Aeropyrum pernix phosphomevalonate …. The data set can be described thus: pull-down; polyhistidine-tagged large subunit co-expressed with untagged small subunit in E. coli; heat-treated (60°C, 30 min) cell extract on Histrap FF, anaerobic; 20 mM sodium phosphate pH 7.4, 500 mM NaCl, 20 mM imidazole; eluted with 150 mM imidazole; subunit ratio from 15% SDS-PAGE and ImageJ. The settings on record: partners not purified.

B1: ApPMDh (Aeropyrum pernix phosphomevalonate dehydratase) (Aeropyrum pernix K1) (protein)
chain 1: MYLTREEERILAGEEGEARAKALEVIVKVGEAVGAERLIPIKHAHVSGASYMTIGDAGLRFLARLAESGARFSVPTTVNPVSYDVEEPGAIPMTRLSPRIVKAQSEILKALEAMGADLILTCTPYYTEVPRRVGLREGDSVAWGESSAVAYANSVLGIHTNREGGPLALMAGIAGRTYFYGAHDPEWRKPRVAYRLETPKVLDETEAGVLGEVIATQHRDEHPPLLDAPLGGEAALKEFSAAVGSAGSLAMVHITGVTPGDPGDMIEEVVTMDYGDLARRMEDLAPGFEPDILYVGCPHASIEELRRLYRALSKAGERAGRRTVVSISRSLYLQALREGLVEKLKGLGVRFVRDSCLIVSPFSSGARGVRVATNSYKAYFYLSKKGVEVGLAPIEALPKLVS
chain 2: MEVLRYRSRPIVGGEAEGPAVVIDSLSFYGEVDPETGVTSGGKPLAGRVAAIRRSRGSTVGSYVIYALKENGVAPLAILMERAEPIVIAGCVLAGIPLYDGLPPEFFERVRDGYRVRVHSDGLVEVLGPGQP
notes: N-terminal His6 tag with HRV3C site on large subunit, small subunit untagged; co-expressed in E. coli Rosetta2(DE3); 1:1 heteromeric complex; tag kept for kinetics, cut for EPR and iron assay; Fe-S cluster reconstituted anaerobically
For the molecule B1, in data set [1], the Km stood at 18.3 µM and the kcat worked out at 15.2 s⁻¹.

B2: Aeropyrum pernix phosphomevalonate dehydratase (ApPMDh) small subunit Ape_2089, untagged (natural protein, UniProt Q9YA49 1-132, looked up)
chain: MEVLRYRSRPIVGGEAEGPAVVIDSLSFYGEVDPETGVTSGGKPLAGRVAAIRRSRGSTVGSYVIYALKENGVAPLAILMERAEPIVIAGCVLAGIPLYDGLPPEFFERVRDGYRVRVHSDGLVEVLGPGQP
notes: small subunit Ape_2089 of phosphomevalonate dehydratase (type IIb aconitase X), Aeropyrum pernix; also called tag-free Ape_2089; small subunit of ApPMDh; source: E. coli Rosetta2 (DE3), co-expressed from pET-HisApPMDh (and expressed alone from pET-ApPMDh-S); heat-treated cell extract
Consider B2, for which the “stoichiometry N” value in data set [2] is ~1 small subunit per large subunit; in data set [3], 1 small subunit per large subunit.

These data come from article PMC10040528, “A [4Fe-4S] cluster resides at the active center of phosphomevalonate dehydratase, a key enzyme in the archaeal modified mevalonate pathway” (Frontiers in Microbiology, 2023).
